The target in the assay is T1, potato lectin (Solanum Tuberosum Lectin, Vector labs, cat#: L-1160) (Solanum tuberosum (potato), UniProt Q9S8M0 23-323).
T1 construct: Bought glycoprotein coated on ELISA wells as an unrelated control compound
T1 sequence: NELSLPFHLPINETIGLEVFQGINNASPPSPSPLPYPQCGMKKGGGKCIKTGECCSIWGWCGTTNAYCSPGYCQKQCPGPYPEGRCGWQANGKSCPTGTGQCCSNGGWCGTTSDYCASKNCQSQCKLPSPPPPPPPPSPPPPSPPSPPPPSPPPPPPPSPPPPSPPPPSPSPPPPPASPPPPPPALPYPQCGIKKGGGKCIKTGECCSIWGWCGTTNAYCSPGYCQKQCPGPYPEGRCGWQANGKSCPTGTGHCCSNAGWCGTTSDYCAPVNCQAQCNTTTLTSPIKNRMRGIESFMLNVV
As to the kind of experiment: ELISA, purified VHH on wells coated with potato lectin, OD 405 nm.

B1: anti-GlcCer VHH 41D01 (VHH)
VHH: QVQLQESGGGLVQAGGSLRLSCAASGRTFSRYGMGWFRQLPGKQRELVTSITRGGTTTYADSVKGRFTISRDNAKNTVYLQMNSLKPEDTAVYYCNARSIWRDYWGQGTQVTVSS
notes: Llama VHH raised against fungal glucosylceramide, made in E. coli and purified through its hexahistidine tag; Tested as purified VHH at 0.1 ug/ml; also called GlcCer-specific VHH 41D01; not shown: C-terminal (His)6 and c-myc peptide tags coded by vector pASF20
For the molecule B1, the binding result is listed as “no binding (tested: 0.1 µg/ml)”.

B2: anti-GlcCer VHH 56F11 (VHH)
VHH: QVQLQESGGGLVQSGGSLRLSCVHSKTTFTRNAMGWYRQALGKERELVATITSGGTTNYADSVKGRFTISMDSAKNTVYLQMNSLKPEDTAVYYCNVNTRRIFGGTVREYWGQGTQVTVSS
notes: Llama VHH raised against fungal glucosylceramide, made in E. coli and purified through its hexahistidine tag; Tested as purified VHH at 1 ug/ml; not shown: C-terminal (His)6 and c-myc peptide tags coded by vector pASF20
Consider B2, for which the binding result is “no binding (tested: 1 µg/ml)”.

Values taken from patent US20160145325A1 (AGROSAVFE N V, published 2016).
